Data set [1] has as its system RL95-2 cells. As to the kind of experiment: TUNEL assay. The note with it: 100 nM siRNA, vs control siRNA; DNase positive control. Type of data set: cell-based, human. From the text:
To test for the involvement of apoptosis, we used siRNA against PME-1 or control siRNA and conducted an immunofluorescence assay called a TUNEL assay. In this assay, all cells were stained blue with the nuclear stain, DAPI, and cells that were undergoing apoptosis would stain green with the addition of fluorescein, which bound to fragmented DNA. Fragmented DNA is a hallmark of apoptotic cells. […] A positive control was included in the assay to determine that the assay conditions were optimal. In the positive control, RL95-2 cells were treated with DNase.
RL95-2 cells were plated in a chamber-slide and allowed to grow over night at 37° C. Cells were transfected the next day with 100 nM of siRNA (Thermo Scientific) using Dharmafect 1 transfection reagent (siRNA sequences are summarized in Table S2). Transfections were repeated on day four and the cultures were terminated the day after. The assay was performed according to the manufacturer's instructions (Roche Applied Science, counterstained with DAPI and photographed using Leica DM16000 B microscope. Cells incubated with 1U/μl of DNase I (Life Technologies) served as a positive control. The experiment was repeated three times.

Data set [2] addresses T1, FLAG-tagged PME-1 S156A (catalytically inactive mutant) (human, UniProt Q9Y570 1-386).
T1 construct: Expressed in ECC-1 cells and pulled down from lysate with FLAG resin; also called FLAG-PME-1 S156A; FLAG PME-1 S156A; not shown: FLAG tag; an N-terminal FLAG vector p3XFLAG-CMV-10 is named in the methods for RL95-2 cells
T1 sequence (looked up): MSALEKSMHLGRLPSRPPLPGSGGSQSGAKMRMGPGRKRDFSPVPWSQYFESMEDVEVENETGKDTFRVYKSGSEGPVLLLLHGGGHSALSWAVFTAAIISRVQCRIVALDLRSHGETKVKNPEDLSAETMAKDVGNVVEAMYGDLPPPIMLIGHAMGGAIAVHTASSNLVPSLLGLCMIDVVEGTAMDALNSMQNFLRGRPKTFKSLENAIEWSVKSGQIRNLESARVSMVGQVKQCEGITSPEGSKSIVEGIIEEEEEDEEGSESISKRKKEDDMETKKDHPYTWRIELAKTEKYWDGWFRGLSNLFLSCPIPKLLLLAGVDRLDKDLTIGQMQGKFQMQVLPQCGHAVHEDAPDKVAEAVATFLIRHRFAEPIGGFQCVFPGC
As to the kind of experiment: FLAG co-immunoprecipitation from ECC-1 lysate, western blot with anti-Ppp6c.

In data set [3] the target is T2, FLAG-tagged PME-1 (over-expression of wild-type PME-1) (human, UniProt Q9Y570 1-386).
T2 construct: Expressed in ECC-1 cells and pulled down from lysate with FLAG resin; also called FLAG-PME-1; protein methylesterase 1; not shown: FLAG tag; an N-terminal FLAG vector p3XFLAG-CMV-10 is named in the methods for RL95-2 cells
T2 sequence (looked up): T1 sequence (looked up) with A156S
The data set is described as above.

The record followed here is patent publication US20200190592A1, “PME-1 AS A BIOMARKER TO PREDICT AND DIAGNOSE AN INCREASED RISK OF ENDOMETRIAL CANCER AND GENE SILENCING OF PME-1 TO INHIBIT EPITHELIAL TO MESENCHYMAL TRANSITION” (Medical Diagnostic Laboratories, L.L.C., priority 2018, published 2020).

Substitutions are numbered along the chain they refer to.

Regarding “PPME1 siRNA no. 1: siRNA, SEQ ID NO: 4: TGG CTG GTG TTG ATA GAT T, bp 959-977 (guide TGGCTGGTGTTGATAGATT; listed as DNA, chemistry not given here; listed as Homo sapiens)”, in data set [1], the “detection of apoptotic cells” value is on record as “did not lead to detection of apoptotic cells”.

B1: Endogenous Ppp6c, the catalytic subunit of PP6 (enzyme, human, UniProt O00743 1-305, looked up)
chain: MAPLDLDKYVEIARLCKYLPENDLKRLCDYVCDLLLEESNVQPVSTPVTVCGDIHGQFYDLCELFRTGGQVPDTNYIFMGDFVDRGYYSLETFTYLLALKAKWPDRITLLRGNHESRQITQVYGFYDECQTKYGNANAWRYCTKVFDMLTVAALIDEQILCVHGGLSPDIKTLDQIRTIERNQEIPHKGAFCDLVWSDPEDVDTWAISPRGAGWLFGAKVTNEFVHINNLKLICRAHQLVHEGYKFMFDEKLVTVWSAPNYCYRCGNIASIMVFKDVNTREPKLFRAVPDSERVIPPRTTTPYFL
notes: Endogenous protein of ECC-1 cell lysate, probed by western blot with anti-Ppp6c; also called protein phosphatase 6 catalytic subunit
On to B1, for which the binding result in data set [2] and in data set [3] was “no binding” throughout.
